Reference: the supplement of paper PMC11780869

Tested on: Bacillus subtilis
Assay: cleaved RNA product abundance (RNA/gDNA barcode ratio) relative to median wild-type variant (ratio to wild type); higher = more accumulation of the downstream cleavage product
Procedure, shortened: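 Cleaved product abundance is expressed as the RNA:gDNA barcode ratio per construct, scaled to the median construct carrying the unmutated site. The constructs were barcoded, mutagenized RNase Y cleavage-site windows in truncated aprE or tetM reporter mRNAs integrated into the B. subtilis chromosome. Cultures grew in LB at 37°C from OD600 0.0003 to 0.3 before cleaved RNA was gel-selected and barcode-sequenced.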

[1] = experiment (reporter, strain, medium): exp 2b: truncated aprE reporter, strain BJT200, cleavage site: cggR-gapA (positions -7 to +36 mutated)
[2] = experiment (reporter, strain, medium): exp 4a: truncated aprE reporter, strain BJT201 with 2% xylose (RNase J1 expressed), cleavage site: cggR-gapA (positions -7 to +36 mutated)
[3] = experiment (reporter, strain, medium): exp 8a: truncated aprE reporter, strain BJT201 with 2% xylose (RNase J1 expressed), cleavage site: glnRA (positions -5 to +31 mutated)
[4] = experiment (reporter, strain, medium): exp 6: tetM reporter, strain 168, cleavage site: cggR-gapA (positions -7 to +36 mutated)

Row | Sequence | cleaved RNA product abundance [2] | cleaved RNA product abundance [3] | further results
1 | ACAGACGAAGGAGCCGCAAAGAAGTTATTAAGGGATGAAAAATCCATCAATATAAATATCTCTCACTTATTTAAA | 0.223 | – | cleaved RNA product abundance [1]: 0.141
2 | CGACATGTCCCGCTTCTTTCATTAATCCGTTAGCAACTGTTTTTATATATACATTTACCTTTTAAGAGGAGGAAT | – | 0.669 | –
3 | ACAGACGAAGGAGCCGCAAAGAAGTTATTAAAGGTTGAATAATCCCTCAATATAAATATCTCTCACTTATTTAAA | 0.0853 | – | –
4 | ACAGACGAAGGAGCCGCAAAGAAGTTCTTAAGGGATGAATAATCCCTCAAAATAAATATCTCTCACTTATTTAAA | 0.182 | – | –
5 | CGACATGTCCCGCTTCTTTCATTAATCCGTTAGCAACTTTTTCGCTATATACATTTACCTTTTAAGAGGAGGAAT | – | 0.662 | –
6 | ACAGACGAAGGAGCCGCAAAGAAGTTATTAAGGGATTAATAATCCCGCAATATAAATATCTCTCACTTATTTAAA | 0.225 | – | –
7 | ACAGACGAAGGAGCCGCAAAGAAGTTATTACGGCATGAATAATCCCTCAATATAAATATCTCTCACTTATTTAAA | 0.204 | – | cleaved RNA product abundance [1]: 0.0982
8 | ACAGACGAAGGAGCCTCAAAGAAGTTATTAAGGCATGAATAATCCCTCAATATAAATATCTCTCACTTATTTAAA | – | – | cleaved RNA product abundance [4]: 0.157
9 | CGACATGTCCCGCTTCTTTCATTAATCCGTTATCAACTGTTTTGCTATATACTTTTACCTTTTAAGAGGAGGAAT | – | 0.295 | –
10 | ACAGACGAAGGAGCCGCAAAGAAGTTATTAAGGGATGAATAATCCCTCAACATAAATATCTCTCACTTATTTAAA | 0.345 | – | cleaved RNA product abundance [1]: 0.22; cleaved RNA product abundance [4]: 0.137
11 | ACAGACGAAGGAGCCGCAAAGAATTTATTAAGGGATGAATAATCCGTCAATATAAATATCTCTCACTTATTTAAA | 0.163 | – | –
12 | ACAGACGAAGGAGCCGCAAAGAAGTTATTAAGGCATGAATAATCCCTCAACATAAATATCTCTCACTTATTTAAA | 0.112 | – | cleaved RNA product abundance [1]: 0.119
13 | ACAGACGAAGGAGCCGCAAAGTAGTTATAAAGGGATGAATAATCCCTCAATATAAATATCTCTCACTTATTTAAA | 0.301 | – | –
14 | CGACATGTCCCGCTTCTTTCATTAAGCCGTTAGCAACTGTTTTGCTATATACATTTACCTTTTAAGAGGAGGAAT | – | 0.855 | –
15 | CGACATGTCCCGCTTCTTTCATTAATCCGTTAACAACTGTTTTGCTATATACATTTTCCTTTTAAGAGGAGGAAT | – | 0.0904 | –
16 | ACAGACGAAGGAGCCGCAAAGAAGTTATTAAGGGATGAATAATCCGTCAATATAGATATCTCTCACTTATTTAAA | 0.314 | – | –
17 | ACAGACGAAGGAGCCGCAAAGAAGTGATTAAGGGATGAATTATCCCTCAATATAAATATCTCTCACTTATTTAAA | 0.366 | – | –
18 | ACAGACGAAGGAGCCGCAAAGAAGTTCTTAAGGGATCAATAATCCCTCAATATAAATATCTCTCACTTATTTAAA | 0.205 | – | –
19 | CGACATGTCCCGCTTCTTTCATTAATCCCTTACCAACTGTTTTGCTATATACATTTACCTTTTAAGAGGAGGAAT | – | 0.187 | –
20 | ACAGACGAAGGAGCCGCAAAGAAGTTATTAAGGGATAAATAATCCCTCAATATACATATCTCTCACTTATTTAAA | 0.699 | – | –
21 | CGACATGTCCCGCTTCTTTCATTAATCCGTAAGCAACTGTTTCGCTATATACATTTACCTTTTAAGAGGAGGAAT | – | 0.145 | –
22 | ACAGACGAAGGAGCCGCAAAGAAGTTATTTAGGGATGAATAATCCCTCAAGATAAATATCTCTCACTTATTTAAA | – | – | cleaved RNA product abundance [1]: 0.16
23 | ACAGACGAAGGAGCCGCAAAGAAGTTATTAAGGGATGAATAATCTCTCAATATAAATAACTCTCACTTATTTAAA | – | – | cleaved RNA product abundance [1]: 0.645
24 | CGACATGTCCCGCTTCTTTCATTAATCCGATTGCAACTGTTTTGCTATATACATTTACCTTTTAAGAGGAGGAAT | – | 0.294 | –
25 | ACAGACGAAGGAGCCGCAAAGAAGTTAGTAAGGGATGAATAATCCGTCAATATAAATATCTCTCACTTATTTAAA | 0.218 | – | –
26 | ACAGACGAAGGAGCCGCAAAGAAGTTATTTAGGTATGAATAATCCCTCAATATAAATATCTCTCACTTATTTAAA | 0.165 | – | cleaved RNA product abundance [1]: 0.121
27 | ACAGACGAAGGAGCCGCAAAGAAGTTATTAAGGGATGAATAAACCCTCAATATAAATAACTCTCACTTATTTAAA | 0.464 | – | –
28 | ACAGACGAAGGAGCCGCAAAGAACTAATTAAGGGATGAATAATCCCTCAATATAAATATCTCTCACTTATTTAAA | 0.321 | – | –
29 | CGACATGTCCCGCTTCTTTCATTAATCCGTAAGCAACTGTTTTGCTATATACATTTACATTTTAAGAGGAGGAAT | – | 0.531 | –
30 | ACAGACGAAGGAGCCGCAAAAAAGTTATTAAGGGATGAATACTCCCTCAATATAAATATCTCTCACTTATTTAAA | 0.58 | – | cleaved RNA product abundance [1]: 0.519
